Patent US20030059769, “High affinity nucleic acid ligands to lectins” (published 2003)

Experiments:
P-selectin (PS-Rg) [1] = molecular target: T1, P-selectin (PS-Rg) (Homo sapiens, UniProt P16109 P16109:42-321); assay: filter; 37 C
P-selectin (PS-Rg) [2] = molecular target: T1, P-selectin (PS-Rg); assay: filter; HSMC; settings: tags: human IgG1 Fc fusion; chain copies: dimer
P-selectin (PS-Rg) [3] = molecular target: T1, P-selectin (PS-Rg); assay: inhibition; sialyl-LewisX; settings: tags: human IgG Fc fusion; chain copies: 2 (stated dimer)
Protocol: The ability of evolved RNA pools or cloned ligands to inhibit the binding of PS-Rg to sialyl-Lewis^x was tested in competitive ELISA assays (C. Foxall et al., 1992, supra). For these assays, the wells of Corning (25801) 96 well microtiter plates were coated with 100 ng of a sialyl-Lewis^x/BSA conjugate, air dried overnight, washed with 300 μl of PBS(−) and then blocked with 1% BSA in HSMC for 60 min at room temperature. RNA ligands were incubated with PS-Rg in HSMC/1% BSA at room temperature for 15 min. After removal of the blocking solution, 50 μl of PS-Rg (10 nM) or a PS-Rg (10 nM)/RNA ligand mix was added to the coated, blocked wells and incubated at room temperature for 60 minutes. The binding solution was removed, wells were washed with 300 μl of PBS(−) and then probed with HRP conjugated anti-human IgG, at room temperature to quantitate PS-Rg binding. After a 30 minute incubation at room temperature in the dark with OPD peroxidase substrate (Sigma P9187), the extent of PS-Rg binding and percent inhibition was determined from the OD₄₅₀.

[4] = tags: human IgG Fc fusion, chain copies: 2 (stated dimer)
[5] = tags: human IgG1 Fc fusion, chain copies: dimer, label: 32P

T1 sequence (P16109 42-321, one chain of several): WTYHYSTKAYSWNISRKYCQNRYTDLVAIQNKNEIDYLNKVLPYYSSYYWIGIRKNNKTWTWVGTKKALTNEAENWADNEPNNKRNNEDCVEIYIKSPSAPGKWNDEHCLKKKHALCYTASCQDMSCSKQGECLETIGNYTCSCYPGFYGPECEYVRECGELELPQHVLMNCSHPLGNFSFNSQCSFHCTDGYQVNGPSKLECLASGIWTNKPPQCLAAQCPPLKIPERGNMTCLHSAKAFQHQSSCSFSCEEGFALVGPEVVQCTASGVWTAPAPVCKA

B1: PA327 (ssRNA)
RNA: GGGAGACAAGAAUAAACGCUCAAUAAGACAACGAACAGACAGAAGCGAAAAAGGGGCGCCGCAGCAACAACAAAUUCGACAGGAGGCUCACAACAGGC
modifications: 2'-NH2 C and U
- Kd (P-selectin (PS-Rg) [1]; [4]): 13.5 nM

B2: PA336 (ssRNA)
RNA: GGGAGACAAGAAUAAACGCUCAAGAUCAUAACGAGAGGAGAGGGAGAACUACACGCGCGCGAGGAAAGAGUUCGACAGGAGGCUCACAACAGGC
modifications: 2'-NH2 C and U
- Kd (P-selectin (PS-Rg) [1]; [4]): 15 nM

B3: PA463 (ssRNA)
RNA: GGGAGACAAGAAUAAACGCUCAAGGGAAACGGAAAGGGACAAGGCGAACAGACGAGAAGUAGACGGAGUAGGAUUCGACAGGAGGCUCACAACAGGC
modifications: 2'-NH2 C and U
- Kd (P-selectin (PS-Rg) [1]; [4]): 8 nM

B4: PA328 (ssRNA)
RNA: GGGAGACAAGAAUAAACGCUCAAGCAAAAGGCGUAAAUACACCUCCGCAACUGGGAAGAAGACGCAGGGACGGUUCGACAGGAGGCUCACAACAGGC
modifications: 2'-NH2 on all C and U [2'-NH2 on all C and U; N83 in fixed region = A]
- Kd (P-selectin (PS-Rg) [1]; [5]): 3 nM

Binder: CUCAACGAAUCAGUAAACAUAACACCAUGAAACAUAAAUAGCACGCGAG (ssRNA, 2'-F on all C and U)
- Kd (P-selectin (PS-Rg) [2]): 0.056 nM

Binder: CUCAACGAAUCAGUAAACAUAACACCAUGAAACAUAAAUAGCACGCGAG (ssRNA, 2'-F C and U)
- IC50 (P-selectin (PS-Rg) [3]): 3 nM

B5: PA319 (ssRNA)
RNA: GGGAGACAAGAAUAAACGCUCAAAGUCGGGGAUAGAAACACACUAAGAAGUGCAUCAGGUAGGAGAUAAUUCGACAGGAGGCUCACAACAGGC
modifications: 2'-NH2 C and U [all C and U 2'-NH2]
- Kd (P-selectin (PS-Rg) [1]; [4]): 11 nM

Binder: CUCAACGAGCCAGGAACAUCGACGUCAGCAAACGCGAG (ssRNA, 2'-F C and U) [PF377s1]
- IC50 (P-selectin (PS-Rg) [3]): 2 nM

Binder: CUCAACGAGCCAGGAACAUCGACGUCAGCAAACGCGAG (ssRNA, 2'-F C and U; 2'-OMe G 7,9,14 and A 8,15,18,27,31) [PF377M5]
- IC50 (P-selectin (PS-Rg) [3]): 2 nM

Binder: CUCAACGAGCCAGGAACAUCGACGUCAGCAAACGCGAG (ssRNA, 2'-F C and U, 5' NH2) [PF377s1-5'NH2]
- IC50 (P-selectin (PS-Rg) [3]): 2 nM

B6: PF422 (ssRNA)
RNA: GGGAGACAAGAAUAAACGCUCAACGUCAAGCCAGAAUCCGGAACACGCGAGAAAACAAAUCAACGACCAAUCGAUUCGACAGGAGGCUCACAAAGGC
modifications: 2'-F C and U
- IC50 (P-selectin (PS-Rg) [3]): 3 nM

B7: PA330 (ssRNA)
RNA: GGGAGACAAGAAUAAACGCUCAAAACGCACAAAGUAAGGGACGGGAUGGAUCGCCCUAGGCUGGAAGGGAACUUCGACAGGAGGCUCACAACAGGC
modifications: 2'-NH2 on all C and U
- Kd (P-selectin (PS-Rg) [1]; [5]): 0.237 nM

B8: PA337 (ssRNA)
RNA: GGGAGACAAGAAUAAACGCUCAAACAGCUACAAGUGGGACAACAGGGUACAGCGGAGAGAAACAUCCAAACAAGUUCGACAGGAGGCUCACAACAGGC
modifications: 2'-NH2 on all C and U
- Kd (P-selectin (PS-Rg) [1]; [5]): 4.5 nM

B9: PA353 (ssRNA)
RNA: GGGAGACAAGAAUAAACGCUCAAGUACCGGGAAGGGAUGAACUGGGAUAUGGGAACGGAGGUCAGAGGCACGAUUCGACAGGAGGCUCACAACAGGC
modifications: 2'-NH2 C and U
- Kd (P-selectin (PS-Rg) [1]; [4]): 9 nM

B10: PF411 (ssRNA)
RNA: GGGAGACAAGAAUAAACGCUCAACAACCCAACCAUCUAGAGCUUCGAACCAUGGUAUACAAGGGAACACAAAAUUCGCGGAGGCUCCAACAGGCGGC
modifications: 2'-F C and U
- IC50 (P-selectin (PS-Rg) [3]): 2 nM

B11: PA354 (ssRNA)
RNA: GGGAGACAAGAAUAAACGCUCAAGCAAUGGAACGCUAGGAGGGAACAUAAGCAGGGCGAGCGGAGUCGAUAGCUUCGACAGGAGGCUCACAACAGGC
modifications: 2'-NH2 C and U
- Kd (P-selectin (PS-Rg) [1]; [4]): 5 nM

B12: PA351 (ssRNA)
RNA: GGGAGACAAGAAUAAACGCUCAAUGAUAGCACAGUGUAUAAGAAAACGCAACACCGCGCGCGGAAAGAGUUCGACAGGAGGCUCACAACAGGC
modifications: 2'-NH2 C and U
- Kd (P-selectin (PS-Rg) [1]; [4]): 2 nM

B13: PF380 (ssRNA)
RNA: GGGAGACAAGAAUAAACGCUCAACGAGCAAAAGUACUCACGGGACCAGGAGAUCAGCAACACGCGAGACGAAAUUCGACAGGAGGCUCACAACAGGC
modifications: 2'-F C and U
- IC50 (P-selectin (PS-Rg) [3]): 4 nM

B14: PA341 (ssRNA)
RNA: GGGAGACAAGAAUAAACGCUCAAGCCCCAAACGCAAGCGAGCAUCCGCAACAGGGAAGAAGACAGACGAAUGAUUCGACAGGAGGCUCACAACAGGC
modifications: 2'-NH2 on all C and U
- Kd (P-selectin (PS-Rg) [1]; [5]): 0.44 nM

B15: PA477 (ssRNA)
RNA: GGGAGACAAGAAUAAACGCUCAAGCCCCAAACGCAAGUGAGCAUCCGCAACAGGGAAGAAGACAGACGAAUGAUUCGACAGGAGGCUCACAACAGGC
modifications: 2'-NH2 on all C and U [2'-NH2 on all C and U; n18 in fixed region = G]
- Kd (P-selectin (PS-Rg) [1]; [5]): 0.57 nM

B16: PA341 (ssRNA)
RNA: GGGAGACAAGAAUAAACGCUCAAGCCCCAAACGCAAGCGAGCAUCCGCAACAGGGAAGAAGACAGACGAAUGAUUCGACAGGAGGCUCACAACAGGC
modifications: 2'-NH2 C and U
- IC50 (P-selectin (PS-Rg) [3]): 3 nM

Binder: CUCAACGCACCAGGAACAACGAGAACCAUCAGUAAACGCGAG (ssRNA, 2'-F C and U) [PF387s1]
- IC50 (P-selectin (PS-Rg) [3]): 2 nM

Binder: CUCAACGCACCAGGAACAACAAGAACCAUCAGUAAGCGCGAG (ssRNA, 2'-F C and U) [PF383s1]
- IC50 (P-selectin (PS-Rg) [3]): 25 nM

B17: PA301 (ssRNA)
RNA: GGGAGACAAGAAUAAACGCUCAAACACAAAUCGGGCAGGGACUGGGUUGGGCACGGCAGGGCGCCUUCGACAGGAGGCUCACAACAGGC
modifications: 2'-NH2 C and U
- Kd (P-selectin (PS-Rg) [1]; [4]): 2.5 nM

B18: PA315 (ssRNA)
RNA: GGGAGACAAGAAUAAACGCUCAAUAACAAAGCAGCAAAGUACCAGAGGAGAGUUGGCAGGGUUUAGGCAGCUUCGACAGGAGGCUCACAACAGGC
modifications: 2'-NH2 C and U
- Kd (P-selectin (PS-Rg) [1]; [4]): 5 nM

B19: PA320 (ssRNA)
RNA: GGGAGACAAGAAUAAACGCUCAAGAGUAUCACACAAACCGGCACGGACUAAGCAGAAGGAGGUACGGAAGAUUCGACAGGAGGCUCACAACAGGC
modifications: 2'-NH2 C and U
- Kd (P-selectin (PS-Rg) [1]; [4]): 4.5 nM

B20: PA447 (ssRNA)
RNA: GGGAGACAAGAAUAAACGCUCAAAACAGAACUGAUCGGCGCAGGUUGAUAAAGGGGCAGCGCGAAGAUCACAAUUCGACAGGAGGCUCACAACAGGC
modifications: 2'-NH2 C and U
- Kd (P-selectin (PS-Rg) [1]; [4]): 50 nM

Binder: GAAUCCGGAACACGCGAGAAAACAAAUCAACGACCAAUCGAUUCG (ssRNA, 2'-F on all C and U)
- Kd (P-selectin (PS-Rg) [2]): 1 nM

Binder: GAAUCCGGAACACGCGAGAAAACAAAUCAACGACCAAUCGAUUCG (ssRNA, 2'-F C and U)
- IC50 (P-selectin (PS-Rg) [3]): 8 nM

B21: PA318 (ssRNA)
RNA: GGGAGACAGAAUAAACGCUCAAAGACCAAGGGACAGCAGCGGGGAAAAACAGAUCACAGCUGUAAGAGGGCUUCGACAGGAGGCUCACAACAGGC
modifications: 2'-NH2 C and U
- Kd (P-selectin (PS-Rg) [1]; [4]): 2 nM

B22: PA352 (ssRNA)
RNA: GGGAGACAAGAAUAAACGCUCAAGAUCAUCGCAGUAUCGGAAUCGACCCUCAGUGGGUGACAUGCGGACAAGUUCGACAGGAGGCUCACAACAGGC
modifications: 2'-NH2 C and U
- Kd (P-selectin (PS-Rg) [1]; [4]): 6 nM

B23: PA338 (ssRNA)
RNA: GGGAGACAAGAAUAAACGCUCAAUCAAGUAAGGAGGAAGGGUCGUGACAGAAAAACGAGCAAAAAACGCGAGUUCGACAGGAGGCUCACAACAGGC
modifications: 2'-NH2 on all C and U
- Kd (P-selectin (PS-Rg) [1]; [5]): 57 nM

B24: PA329 (ssRNA)
RNA: GGGAGACAAGAAUAAACGCUCAAGAAGGAUACUUAGGACUACGUGGGAUGGGAUGAAAUGGGAGAACGGGAGUUCGACAGGAGGCUCACAACAGGC
modifications: 2'-NH2 C and U
- Kd (P-selectin (PS-Rg) [1]; [4]): 4 nM

B25: PA325 (ssRNA)
RNA: GGGAGACAAGAAUAAACGCUCAAACGAGAGCACCAAGGCAACAGAUGCAGAAGAAGUGUGCGCGCGCGAAAUUCGACAGGAGGCUCACAACAGGC
modifications: 2'-NH2 C and U
- Kd (P-selectin (PS-Rg) [1]; [4]): > 10 nM

B26: PA342 (ssRNA)
RNA: GGGAGACAAGAAUAAACGCUCAACCAACGCGCACCCCGCAGCAAACGAAAUUGGGGAGACAGGUGCAAGACAGUUCGACAGGAGGCUCACAACAGGC
modifications: 2'-NH2 C and U
- Kd (P-selectin (PS-Rg) [1]; [4]): 4 nM

B27: PF381 (ssRNA)
RNA: GGGAGACAAGAAUAAACGCUCAAAGGAUCACACAAACAUCGGUCAAUAAAUAAGUAUUGAUAGCGGGGAUAUUCGACAGGAGGCUCACAACAGGC
modifications: 2'-F C and U
- IC50 (P-selectin (PS-Rg) [3]): 1 nM

B28: PA335 (ssRNA)
RNA: GGGAGACAAGAAUAAACGCUCAAUGAUAUACACGUAAGCACUGAACCAGGCUGAGAUCCAUCAGUGCCCAGGUUCGACAGGAGGCUCACAACAGGC
modifications: 2'-NH2 C and U
- Kd (P-selectin (PS-Rg) [1]; [4]): 10.5 nM

Binder: CUCAACGAGCCAGGACUACGAUCAGCAAACGCGAG (ssRNA, 2'-F on all C and U)
- Kd (P-selectin (PS-Rg) [2]): 0.22 nM

Binder: CUCAACGAGCCAGGACUACGAUCAGCAAACGCGAG (ssRNA, 2'-F C and U)
- IC50 (P-selectin (PS-Rg) [3]): 4 nM
